Measured values published in patent US20170240629A1 (Hoffmann-La Roche, published 2017).
Read-outs that look alike come from different tables or passages of the source.

Experiments:
[1] = target: T1, human IL-1beta (human, UniProt P01584 117-269); assay: SPR (BIAcore T200); antibody captured by anti-human Fc, human IL-1beta injected (Example 52); set-up: t 1/2: unit not given here
[2] = target: T2, ANG2 (UniProt O15123 68-496, limits assumed); assay: cell-based or functional assay
T2 sequence (looked up): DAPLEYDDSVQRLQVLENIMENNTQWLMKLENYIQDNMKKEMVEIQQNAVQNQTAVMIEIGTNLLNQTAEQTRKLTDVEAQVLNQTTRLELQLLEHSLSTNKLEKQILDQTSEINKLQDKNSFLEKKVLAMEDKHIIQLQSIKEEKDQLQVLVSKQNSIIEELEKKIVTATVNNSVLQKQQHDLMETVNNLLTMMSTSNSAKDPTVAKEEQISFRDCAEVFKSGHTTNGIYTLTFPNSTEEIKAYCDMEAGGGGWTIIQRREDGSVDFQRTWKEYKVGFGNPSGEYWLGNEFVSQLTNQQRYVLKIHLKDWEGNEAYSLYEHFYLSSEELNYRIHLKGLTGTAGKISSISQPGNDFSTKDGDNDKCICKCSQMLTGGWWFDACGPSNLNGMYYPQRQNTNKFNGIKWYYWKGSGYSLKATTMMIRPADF

[3] = target: T1, human IL-1beta; assay: cell-based or functional assay
[4] = target: T3, human ANG2-RBD-mouse Fc-region fusion (human, UniProt O15123 275-496, limits assumed); assay: SPR (BIAcore T200); ANG2-RBD-mouse Fc captured, antibody injected (Example 52)
T3 construct: domain: RBD; also called human ANG2-RBD-murine Fc-region fusion; not shown: mouse Fc-region
T3 sequence (looked up): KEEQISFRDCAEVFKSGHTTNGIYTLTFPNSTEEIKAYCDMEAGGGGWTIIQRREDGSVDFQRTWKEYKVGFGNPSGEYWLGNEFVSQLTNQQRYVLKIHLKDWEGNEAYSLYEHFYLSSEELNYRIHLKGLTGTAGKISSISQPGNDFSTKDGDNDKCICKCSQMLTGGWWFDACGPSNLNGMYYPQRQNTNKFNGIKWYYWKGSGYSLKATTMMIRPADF

[5] = target: T1, human IL-1beta; assay: cell-based or functional assay; remark: listed apart in the source
[6] = target: T4, human PDGF-BB (human, UniProt P01127 82-190); assay: SPR; whole antibody
T4 construct: also called huPDGF-BB

[7] = target: T4, human PDGF-BB; assay: competition ELISA; biotinylated human PDGF-BB with antibody on coated Fc-tagged PDGF-BB receptor (competitor)
Protocol: The IC₅₀ was calculated with a four parameter logistic model using GraphPad Prism 6.0 software.

[8] = target: rat PDGF-BB (rat, UniProt Q05028 74-182); assay: ELISA, antigen coated
[9] = target: T4, human PDGF-BB; assay: ELISA, antigen coated
[10] = target: T5, human PDGF-AA (human, UniProt P04085 87-211, limits assumed); assay: ELISA, antigen coated
T5 construct: also called huPDGF-AA

[11] = target: T6, murine PDGF-BB (murine, UniProt P31240 82-190); assay: ELISA, antigen coated
T6 construct: also called muPDGF-BB

[12] = target: T4, human PDGF-BB; assay: cell-based or functional assay
[13] = target: T4, human PDGF-BB; assay: SPR (BIAcore T200) kinetic screening; PDGF-BB coupled on C1 chip, antibody injected
[14] = target: T4, human PDGF-BB; assay: SPR; apparent KD** of the whole antibody
[15] = target: T4, human PDGF-BB; assay: cell-based or functional assay; remark: listed apart in the source
[16] = target: T4, human PDGF-BB; assay: SPR; apparent KD of the Fab
[17] = target: T4, human PDGF-BB; assay: SPR (BIAcore T200); PDGF-BB coupled on CM3 chip, Fab injected
[18] = target: T4, human PDGF-BB; assay: SPR; Fab

T4 sequence (P01127 82-190 limits assumed): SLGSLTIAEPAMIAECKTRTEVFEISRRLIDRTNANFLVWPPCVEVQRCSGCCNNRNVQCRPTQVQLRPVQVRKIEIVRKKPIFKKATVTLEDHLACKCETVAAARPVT
Chain of rat PDGF-BB (Q05028 74-182 limits assumed): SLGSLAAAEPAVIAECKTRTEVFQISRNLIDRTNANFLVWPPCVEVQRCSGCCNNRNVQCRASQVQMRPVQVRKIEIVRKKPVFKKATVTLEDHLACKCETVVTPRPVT
T6 sequence (P31240 82-190 limits assumed): as the sequence (Q05028 74-182 limits assumed) above, with V83I, V102I counted along it

B1: antibody 0031 (bispecific antibody, V domains shown)
VH 1: QVQLVQSGAEVKKPGASVKVSCKASGYTFTGYYMHWVRQAPGQGLEWIGYISSYNAFTTYNQKFRGRATFTVDTSISTAYMELSRLRSDDTAVYYCVRSDYYGTSLYWGQGTLVTVSS
VL 1: EIVLTQSPATLSLSPGERATLSCRASSSVSYMHWSQQKPGQAPRLLIYSTSNLASGIPARFSGSGSGTDFTLTISSLEPEDFAVYYCHQWSNYYTFGQGTKLEIK
VH 2: not shown
VL 2: SYVLTQPPSVSVAPGQTARITCGGNNIGSKSVHWYQQKPGQAPVLVVYDTSDRPSGIPERFSGSNSGNTATLTISRVEAGDEADYYCQVWDSSSDHWVFGGGTKLTVLSS
notes: CrossMab; also called anti-IL-1beta/ANG2 antibody; bispecific anti-ANG2/IL-1beta antibody
- Kd [1]: 0.12 nM
- koff [1]: 0.000302 s⁻¹
- kon [1]: 2.56e+06 M⁻¹ s⁻¹
- t 1/2 [1]: 38
- ANG2 specific pTie2-ELISA, activity against the anti-ANG2/VEGF antibody reported in WO 2014/09465 [2]: 6 fold
- EC50, reduction of IL-6 expression upon IL-1beta stimulation of A549 cells [3]: 0.017 µg/mL
- Kd [4]: 8 nM
- koff [4]: 0.00115 s⁻¹
- kon [4]: 145000 M⁻¹ s⁻¹
- t½ [4]: 10.1 min
- IC50, inhibition of ICAM-1 expression upon IL-1beta stimulation of A549 cells [5]: 0.104 µg/mL

B2: PDGF-B-mumAb (antibody, V domains shown)
VH: QVQLQQSGAELMKPGASVKISCKATGYTFSSYWIEWVKQRPGHGLEWIGEILPGSGSTNYNEKFKVKATFTADTSSNTAYMQLSSLTSEDSAVYYCAQTTQDFDSWGQGTTLTVSS
VL: DIVLTQSPGSLAVSLGQRATISCRASESVDIYGYSFMHWYQQKPGQPPKLLIYRASNLESGIPARFSGSGSRTDFTLTINPVEADDVATYYCQQSNEDPRTFGGGTKLEIK
notes: Murine antibody; also called murine anti-human PDGF-B antibody
- T½ [6]: 47.8 min
- IC50 [7]: 0.0122 µg/mL
- EC50 [8]: 0.00512 µg/mL
- EC50 [9]: 0.0163 µg/mL
- EC50 [10]: 0.00204 µg/mL
- EC50 [11]: 0.0088 µg/mL
- IC50 Phospho-Inhibition [12]: 0.0017 µg/mL
- IC50 Proliferation 3T3 [12]: 0.0551 µg/mL
- koff [13]: 0.00045 s⁻¹
- t½ [13]: 26 min
- Kd [14]: 0.042 nM
- IC50 Phospho-Inhibition [15]: 0.0017 µg/mL
- IC50 Proliferation 3T3 [15]: 0.0551 µg/mL

B3: PDGF-B-mumAb Fab (Fab, V domains shown)
VH: QVQLQQSGAELMKPGASVKISCKATGYTFSSYWIEWVKQRPGHGLEWIGEILPGSGSTNYNEKFKVKATFTADTSSNTAYMQLSSLTSEDSAVYYCAQTTQDFDSWGQGTTLTVSS
VL: DIVLTQSPGSLAVSLGQRATISCRASESVDIYGYSFMHWYQQKPGQPPKLLIYRASNLESGIPARFSGSGSRTDFTLTINPVEADDVATYYCQQSNEDPRTFGGGTKLEIK
notes: Fab fragment of PDGF-B-mumAb
- Kd [16]: 5 nM
- Kd [17]: 5 nM
- koff [17]: 0.00201 s⁻¹
- kon [17]: 439000 M⁻¹ s⁻¹
- t½ [17]: 5.75 min
- T½ [18]: 5.75 min
